Experimental data published in patent US20060008878A1 (UNIVERSITY OF CHICAGO, published 2006).

Molecular target: the molecule itself
Assay: nondenaturing SDS-PAGE or size exclusion chromatography (self-association)
Description: For nondenaturing SDS-PAGE, one μg of each purified DsRed variant or wild-type DsRed was mixed with SDS-containing sample buffer on ice and immediately electrophoresed at 4° C. in a 10% polyacrylamide gel, followed by staining with Coomassie Blue. Additional aliquots of wild-type DsRed and DsRed variants were denatured by boiling prior to electrophoresis.

B1: DsRed.M1 (other)
chain: MDNTEDVIKEFMQFKVRMEGSVNGHYFEIEGEGEGKPYEGTQTAKLQVTKGGPLPFAWDILSPQFQYGSKAYVKHPADIPDYMKLSFPEGFTWERSMNFEDGGVVEVQQDSSLQDGTFIYKVKFKGVNFPADGPVMQKKTAGWEPSTEKLYPQDGVLKGEISHALKLKDGGHYTCDFKTVYKAKKPVQLPGNHYVDSKLDITNHNEDYTVVEQYEHAEARHSGSQ
notes: Purified protein tested for its oligomeric state; also called monomeric DsRed variant; red fluorescent DsRed monomer
- binding result: no binding
